Experimental data from the supplement of paper PMC10567573.

B1: FBXO3 (parent)
chain: GGFPIIRDQIFRYVHDPECVATTG

Variants of: B1
Test: protein stability index of a GFP-peptide fusion (GPS, HEK-293T) (PSI 1-6); higher = more stable
Conditions: c terminus: a fixed tail appended
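Also: lentivirally expressed fusions sorted by FACS into six bins by GFP to DsRed ratio, PSI derived from sequencing read proportions per bin multiplied by bin number.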

Row | Variant | protein stability index
1 | GGFPIIRDQIFRYVHDPICVATTG | 1.92
2 | GGFPIIRDQIFRYVHDPCCVATTG | 2.04
3 | GGFPIIRDQIFRYVHDPVCVATTG | 1.7
4 | GGFPIIRDQIFRYVHDPDCVATTG | 1.68
5 | GGFPIIRDQIFRYVHDPWCVATTG | 1.38
6 | GGFPIIRDQIFRYVHDPPCVATTG | 2.1
7 | GGFPIIRDQIFRYVHDPKCVATTG | 2.38
8 | GGFPIIRDQIFRYVHDPTCVATTG | 1.98
9 | GGFPIIRDQIFRYVHDPACVATTG | 2.61
10 | GGFPIIRDQIFRYVHDPHCVATTG | 1.99
11 | GGFPIIRDQIFRYVHDPMCVATTG | 1.79
12 | GGFPIIRDQIFRYVHDPYCVATTG | 2.52
13 | GGFPIIRDQIFRYVHDPNCVATTG | 1.8
14 | GGFPIIRDQIFRYVHDPLCVATTG | 1.58
15 | GGFPIIRDQIFRYVHDPFCVATTG | 1.88
16 | GGFPIIRDQIFRYVHDPSCVATTG | 1.57
17 | GGFPIIRDQIFRYVHDPQCVATTG | 1.28
18 | GGFPIIRDQIFRYVHDPGCVATTG | 1.71
19 | GGFPIIRDQIFRYVHDPRCVATTG | 1.69
20 | GGFPIIRDQIFRYVHDPECVATAG | 1.8
21 | GGFPIIRDQIFRYVHDPECVATCG | 1.91
22 | GGFPIIRDQIFRYVHDPECHATTG | 2.01
23 | GGFPIIRDQIFRYVHDPECLATTG | 1.81
24 | GGFPIIRDQIFRYVHDPECMATTG | 1.79

Row | Variant | protein stability index
25 | GGFPIIRDQIFRYVHDPECEATTG | 2.22
26 | GGFPIIRDQIFRYVHDPECAATTG | 2.24
27 | GGFPIIRDQIFRYVHDPECFATTG | 1.8
28 | GGFPIIRDQIFRYVHDPECQATTG | 2.04
29 | GGFPIIRDQIFRYVHDPECIATTG | 2.19
30 | GGFPIIRDQIFRYVHDPECCATTG | 2.84
31 | GGFPIIRDQIFRYVHDPECNATTG | 2.49
32 | GGFPIIRDQIFRYVHDPECKATTG | 1.27
33 | GGFPIIRDQIFRYVHDPECDATTG | 1.45
34 | GGFPIIRDQIFRYVHDPECSATTG | 2.32
35 | GGFPIIRDQIFRYVHDPECTATTG | 1.68
36 | GGFPIIRDQIFRYVHDPECWATTG | 1.78
37 | GGFPIIRDQIFRYVHDPECGATTG | 2.08
38 | GGFPIIRDQIFRYVHDPECYATTG | 1.9
39 | GGFPIIRDQIFRYVHDPECRATTG | 1.63
40 | GGFPIIRDQIFRYVHDPECPATTG | 2.23
41 | GGFPIIRDQIFRYVHDPECVAKTG | 1.64
42 | GGFPIIRDQIFRYVHDPECVAYTG | 1.88
43 | GGFPIIRDQIFRYVHDPECVAMTG | 1.53
44 | GGFPIIRDQIFRYVHDPECVAVTG | 1.67
45 | GGFPIIRDQIFRYVHDPECVADTG | 2.25
46 | GGFPIIRDQIFRYVHDPECVAQTG | 1.76
47 | GGFPIIRDQIFRYVHDPECVAATG | 1.74
48 | GGFPIIRDQIFRYVHDPECVANTG | 2.61

Row | Variant | protein stability index
49 | GGFPIIRDQIFRYVHDPECVALTG | 1.83
50 | GGFPIIRDQIFRYVHDPECVAITG | 2.26
51 | GGFPIIRDQIFRYVHDPECVASTG | 1.63
52 | GGFPIIRDQIFRYVHDPECVAFTG | 1.67
53 | GGFPIIRDQIFRYVHDPECVAGTG | 1.66
54 | GGFPIIRDQIFRYVHDPECVAPTG | 2.23
55 | GGFPIIRDQIFRYVHDPECVAETG | 2.28
56 | GGFPIIRDQIFRYVHDPECVARTG | 2.56
57 | GGFPIIRDQIFRYVHDPECVAHTG | 1.92
58 | GGFPIIRDQIFRYVHDPECVAWTG | 1.84
59 | GGFPIIRDQIFRYVHDPECVACTG | 1.72
60 | GGFPIIRDQIFRYVHDPEVVATTG | 2.08
61 | GGFPIIRDQIFRYVHDPENVATTG | 1.74
62 | GGFPIIRDQIFRYVHDPEGVATTG | 1.73
63 | GGFPIIRDQIFRYVHDPEPVATTG | 1.94
64 | GGFPIIRDQIFRYVHDPEQVATTG | 1.94
65 | GGFPIIRDQIFRYVHDPESVATTG | 1.9
66 | GGFPIIRDQIFRYVHDPEAVATTG | 1.6
67 | GGFPIIRDQIFRYVHDPEEVATTG | 2.47
68 | GGFPIIRDQIFRYVHDPEHVATTG | 1.57
69 | GGFPIIRDQIFRYVHDPELVATTG | 1.72
70 | GGFPIIRDQIFRYVHDPEMVATTG | 2.31
71 | GGFPIIRDQIFRYVHDPEWVATTG | 2.15
72 | GGFPIIRDQIFRYVHDPEFVATTG | 1.57

Row | Variant | protein stability index
73 | GGFPIIRDQIFRYVHDPERVATTG | 1.79
74 | GGFPIIRDQIFRYVHDPEKVATTG | 1.78
75 | GGFPIIRDQIFRYVHDPEIVATTG | 1.55
76 | GGFPIIRDQIFRYVHDPETVATTG | 2.09
77 | GGFPIIRDQIFRYVHDPEYVATTG | 1.81
78 | GGFPIIRDQIFRYVHDPEDVATTG | 2.49
79 | GGFPIIRDQIFRYPHDPECVATTG | 3.32
80 | GGFPIIRDQIFRYNHDPECVATTG | 2.92
81 | GGFPIIRDQIFRYTHDPECVATTG | 2.5
82 | GGFPIIRDQIFRYWHDPECVATTG | 1.94
83 | GGFPIIRDQIFRYGHDPECVATTG | 2.78
84 | GGFPIIRDQIFRYYHDPECVATTG | 2.9
85 | GGFPIIRDQIFRYCHDPECVATTG | 1.93
86 | GGFPIIRDQIFRYAHDPECVATTG | 2.12
87 | GGFPIIRDQIFRYHHDPECVATTG | 2.28
88 | GGFPIIRDQIFRYMHDPECVATTG | 2.42
89 | GGFPIIRDQIFRYKHDPECVATTG | 2.83
90 | GGFPIIRDQIFRYFHDPECVATTG | 1.92
91 | GGFPIIRDQIFRYEHDPECVATTG | 3.51
92 | GGFPIIRDQIFRYIHDPECVATTG | 2.57
93 | GGFPIIRDQIFRYSHDPECVATTG | 2.74
94 | GGFPIIRDQIFRYLHDPECVATTG | 2.28
95 | GGFPIIRDQIFRYDHDPECVATTG | 3.78
96 | GGFPIIRDQIFRYQHDPECVATTG | 3.11

Row | Variant | protein stability index
97 | GGFPIIRDQIFRYRHDPECVATTG | 2.94
98 | GGFPIIRDQIFRYVHDFECVATTG | 2.01
99 | GGFPIIRDQIFRYVHDQECVATTG | 1.97
100 | GGFPIIRDQIFRYVHDAECVATTG | 1.84
101 | GGFPIIRDQIFRYVHDRECVATTG | 1.49
102 | GGFPIIRDQIFRYVHDMECVATTG | 2.1
103 | GGFPIIRDQIFRYVHDYECVATTG | 1.64
104 | GGFPIIRDQIFRYVHDGECVATTG | 2.11
105 | GGFPIIRDQIFRYVHDIECVATTG | 1.43
106 | GGFPIIRDQIFRYVHDKECVATTG | 2.47
107 | GGFPIIRDQIFRYVHDCECVATTG | 1.83
108 | GGFPIIRDQIFRYVHDEECVATTG | 2.34
109 | GGFPIIRDQIFRYVHDSECVATTG | 2.93
110 | GGFPIIRDQIFRYVHDLECVATTG | 1.81
111 | GGFPIIRDQIFRYVHDVECVATTG | 1.46
112 | GGFPIIRDQIFRYVHDHECVATTG | 1.83
113 | GGFPIIRDQIFRYVHDDECVATTG | 2.91
114 | GGFPIIRDQIFRYVHDNECVATTG | 2.61
115 | GGFPIIRDQIFRYVHDWECVATTG | 2.01
116 | GGFPIIRDQIFRYVHDTECVATTG | 2.42
117 | GGFPIIRDQIFRYVWDPECVATTG | 1.85
118 | GGFPIIRDQIFRYVMDPECVATTG | 1.49
119 | GGFPIIRDQIFRYVRDPECVATTG | 1.68
120 | GGFPIIRDQIFRYVYDPECVATTG | 1.74

Row | Variant | protein stability index
121 | GGFPIIRDQIFRYVQDPECVATTG | 2.02
122 | GGFPIIRDQIFRYVDDPECVATTG | 2.41
123 | GGFPIIRDQIFRYVGDPECVATTG | 1.78
124 | GGFPIIRDQIFRYVTDPECVATTG | 2.28
125 | GGFPIIRDQIFRYVFDPECVATTG | 1.85
126 | GGFPIIRDQIFRYVCDPECVATTG | 1.97
127 | GGFPIIRDQIFRYVLDPECVATTG | 1.94
128 | GGFPIIRDQIFRYVIDPECVATTG | 1.62
129 | GGFPIIRDQIFRYVSDPECVATTG | 1.5
130 | GGFPIIRDQIFRYVEDPECVATTG | 2.85
131 | GGFPIIRDQIFRYVNDPECVATTG | 1.84
132 | GGFPIIRDQIFRYVPDPECVATTG | 2.27
133 | GGFPIIRDQIFRYVKDPECVATTG | 2.05
134 | GGFPIIRDQIFRYVADPECVATTG | 1.95
135 | GGFPIIRDQIFRYVVDPECVATTG | 2.58
136 | GGFPIIRDQIFRGVHDPECVATTG | 3.18
137 | GGFPIIRDQIFRSVHDPECVATTG | 3.62
138 | GGFPIIRDQIFRKVHDPECVATTG | 2.79
139 | GGFPIIRDQIFRQVHDPECVATTG | 3.65
140 | GGFPIIRDQIFRTVHDPECVATTG | 3.34
141 | GGFPIIRDQIFRIVHDPECVATTG | 2.39
142 | GGFPIIRDQIFRNVHDPECVATTG | 3.58
143 | GGFPIIRDQIFRPVHDPECVATTG | 3.84
144 | GGFPIIRDQIFRHVHDPECVATTG | 2.28

Row | Variant | protein stability index
145 | GGFPIIRDQIFRWVHDPECVATTG | 2.18
146 | GGFPIIRDQIFRRVHDPECVATTG | 3.22
147 | GGFPIIRDQIFRLVHDPECVATTG | 2.51
148 | GGFPIIRDQIFRVVHDPECVATTG | 2.8
149 | GGFPIIRDQIFRMVHDPECVATTG | 2.88
150 | GGFPIIRDQIFRFVHDPECVATTG | 1.75
151 | GGFPIIRDQIFRYVHDPECVVTTG | 1.36
152 | GGFPIIRDQIFRYVHDPECVMTTG | 2.42
153 | GGFPIIRDQIFRYVHDPECVWTTG | 1.7
154 | GGFPIIRDQIFRYVHDPECVDTTG | 1.06
155 | GGFPIIRDQIFRYVHDPECVETTG | 1.55
156 | GGFPIIRDQIFRYVHDPECVSTTG | 1.93
157 | GGFPIIRDQIFRYVHDPECVCTTG | 1.39
158 | GGFPIIRDQIFRYVHDPECVTTTG | 1.69
159 | GGFPIIRDQIFRYVHDPECVLTTG | 1.45
160 | GGFPIIRDQIFRYVHDPECVFTTG | 1.64
161 | GGFPIIRDQIFRYVHDPECVYTTG | 2.49
162 | GGFPIIRDQIFRYVHDPECVITTG | 1.5
163 | GGFPIIRDQIFRYVHDPECVQTTG | 2.05
164 | GGFPIIRDQIFRYVHDPECVHTTG | 2.77
165 | GGFPIIRDQIFRYVHDPECVPTTG | 1.86
166 | GGFPIIRDQIFRYVHDPECVKTTG | 1.62
167 | GGFPIIRDQIFRYVHDPECVGTTG | 2
168 | GGFPIIRDQIFRYVHDPECVNTTG | 1.5

Row | Variant | protein stability index
169 | GGFPIIRDQIFRYVHDPECVRTTG | 1.82
170 | GGFPIIRDQIFRYVHWPECVATTG | 2.72
171 | GGFPIIRDQIFRYVHRPECVATTG | 1.5
172 | GGFPIIRDQIFRYVHPPECVATTG | 2.47
173 | GGFPIIRDQIFRYVHVPECVATTG | 2.05
174 | GGFPIIRDQIFRYVHIPECVATTG | 2.06
175 | GGFPIIRDQIFRYVHEPECVATTG | 2.56
176 | GGFPIIRDQIFRYVHLPECVATTG | 1.75
177 | GGFPIIRDQIFRYVHSPECVATTG | 2.2
178 | GGFPIIRDQIFRYVHMPECVATTG | 1.88
179 | GGFPIIRDQIFRYVHYPECVATTG | 2.26
180 | GGFPIIRDQIFRYVHNPECVATTG | 1.8
181 | GGFPIIRDQIFRYVHAPECVATTG | 1.86
182 | GGFPIIRDQIFRYVHQPECVATTG | 2.25
183 | GGFPIIRDQIFRYVHFPECVATTG | 1.4
184 | GGFPIIRDQIFRYVHCPECVATTG | 1.94
185 | GGFPIIRDQIFRYVHTPECVATTG | 2.37
186 | GGFPIIRDQIFRYVHGPECVATTG | 1.93
187 | GGFPIIRDQIFRYVHHPECVATTG | 1.46
188 | GGFPIIRDQIFRYVHKPECVATTG | 2.3
